Data: patent publication US20200392528A1, “IMPROVED PLANT EPSP SYNTHASES AND METHODS OF USE” (PIONEER HI-BRED INTERNATIONAL, INC., priority 2017, published 2020)
Like-named read-outs stand apart in the source and are kept apart here.

B1: Zm D2-28: maize EPSPS variant, SEQ ID NO: 8 (protein)
chain: MRKWEEIVLQPIKEISGTVKLPGSKSLSNRILLLAGLAEGTTVVDNLLNSEDVHYMLGALRTLGLSVEHDKAAKRAVVVGCGGRFPVEDAKGEVQLFCGNAATAMRPLTAAVTAAGGNATYVLDGVPRMRERPIGDLVVGLKQLGADVDCFLGTDCPPVRVNGIGGLPGGKVKLSGSISSQYLSALLMAAPLALGDVEIEIIDKLISLPYVEMTLRLMERFGVKAERSDSWDRFYIKGGQSYLSPKNAYVEGDASSASYFLAGAAITGGTVTVEGCGTTSLQGDVKFAEVLEMMGAKVTWTEASVTVTGPPREPFGRKHLKAIDVNMNKMPDAAMTLAVVALFADGPTAIRDVGSWRVKETERMVAIRTELTKLGASVEEGPDYCIITPPEKLNVTAIDTYGDHRMAMAFSLAACAEVPVTIRDPGCTRKTFPDYFDVLSTFVKN
modifications: Zea mays
B2: Zm D2-82: maize EPSPS variant, SEQ ID NO: 6 (protein)
chain: MRKWEEIVLQPIKEISGTVKLPGSKSLSNRILLLAALSEGTTVVDNLLNSEDVHYMLGALRTLGLSVEHDKAAKRAVVVGCGGRFPVEDAKGEVQLFCGNAATAMRPLTAAVTAAGGNATYVLDGVPRMRERPIGDLVVGLKQLGADVDCFLGTDCPPVRVNGIGGLPGGKVKLSGSISSQYLSALLMAAPLALGDVEIEIIDKLISLPYVEMTLRLMERFGVKAEHSDSWDRFYIKGGQKYESPKNAYVEGDASSASYFLAGAAITGGTVTVEGCGTTSLQGDVKFAEVLEMMGAKVTWTETSVTVTGPPREPFGRKHLKAIDVNMNKMPDAAMTLAVVALFADGPTAIRDVGSWRVKETERMVAICTELTKLGASVEEGPDYCIITPPPKLNVTAIDTYGDHRMAMAFSLAACAEVPVTIRDPGCTRKTFPDYFDVLSTFVKN
modifications: Zea mays
B3: Zm D2-67: maize EPSPS variant, SEQ ID NO: 5 (protein)
chain: MRKWEEIVLQPIKEISGTVKLPGSKSLSNRILLLAALSEGTTVVDNLLNSEDVHYMLGALRTLGLSVEHDKAAKRAVVVGCGGRFPVEDAKGEVQLFCGNAATAMRPLTAAVTAAGGNATYVLDGVPRMRERPIGDLVVGLKQLGADVDCFLGTDCPPVRVNGIGGLPGGKVKLSGSISSQYLSALLMAAPLALGDVEIEIIDKLISLPYVEMTLRLMERFGVKAEHSDSWDRFYIKGGQKYESPKNAYVEGDASSASYFLAGAAITGGTVTVEGCGTTSLQGDVKFAEVLEMMGAKVTWTETSVTVTGPPREPFGRKHLKAIDVNMNKMPDAAMTLAVVALFADGPTAIRDVGSWRVKETERMVAIRTELTKLGASVEEGPDYCIITPPPKLNVTAIDTYGDHRMAMAFSLAACAEVPVTIRDPGCTRKTFPDYFDVLSTFVKN
modifications: Zea mays
B4: Zm D2-68: maize EPSPS variant, SEQ ID NO: 4 (protein)
chain: MRKWEEIVLQPIKEISGTVKLPGSKSLSNRILLLAALAEGTTVVDNLLNSEDVLYMLGALRTLGLSVEHDKAAKRAVVVGCGGRFPVEDAKGEVQLFCGNAATAMRPLTAAVTAAGGNATYVLDGVPRMRERPIGDLVVGLKQLGADVDCFLGTDCPPVRVNGIGGLPGGKVKLSGSISSQYLSALLMAAPLALGDVEIEIIDKLISLPYVEMTLRLMERFGVKAEHSDSWDRFYIKGGQKYLSPKNAYVEGDASSASYFLAGAAITGGTVTVEGCGTTSLQGDVKFAEVLEMMGAKVTWTETSVTVTGPPREPFGRKHLKAIDVNMNKMPDAAMTLAVVALFADGPTAIRDVASWRVKETERMVAICTELTKLGASVEEGPDYCIITPPPKLNVTAIDTYGDHRMAMAFSLAACAEVPVTIRDPGCTRKTFPDYFDVLSTFVKN
modifications: Zea mays
B5: Zm D2-3P124: maize EPSPS variant, SEQ ID NO: 3; D2-124 has 18 mutations (protein)
chain: MRKWEEIVLQPIKEISGTVKLPGSKSLSNRILLLAALSEGTTVVDNLLNSEDVGYMLGALRTLGLSVEHDEAAKRAVVVGCGGRFPVEDAKGEVQLFCGNAATAMRPLTAAVTAAGGNATYVLDGVPRMRERPIGDLVVGLKQLGADVDCFLGTDCPPVRVNGIGGLPGGKVKLSGSISSQYLSALLMAAPLALGDVEIEIIDKLISLPYVEMTLRLMERFGVRAEHSDSWDRFYIKGGQKYESPKNAYVEGDASSASYFLAGAAITGGTVTVEGCGTTSLQGDVKFAEVLEMMGAKVTWTETSVTVTGPPREPFGRKHLKAIDVNMNKMPDAAMTLAVVALFADGPTAIRDVGSWRVKETERMVAIRTELTKLGASVEEGPDYCIITPPPKLNVTAIDTYGDHRMAMAFSLAACGEVPVTIRDPGCTRKTFPDYFDVLSTFVKN
modifications: Zea mays
notes: D2-124 has 18 mutations
B6: Zm F3: maize EPSPS variant, SEQ ID NO: 11 (protein)
chain: MAGAEEIVLQPIKEISGTVKLPGSKSLSNRILLLAALSEGTTVVDNLLNSEDVHYMLGALRTLGLSVEADKAAKRAVVVGCGGKFPVEDAKEEVQLFCGNAATAMRPLTAAVTAAGGNATYVLDGVPRMRERPIGDLVVGLKQLGADVDCFLGTDCPPVRVNGIGGLPGGKVKLSGSISSQYLSALLMAAPLALGDVEIEIIDKLISIPYVEMTLRLMERFGVKAEHSDSWDRFYIKGGQKYKSPKNAYVEGDASSASYFLAGAAITGGTVTVEGCGTTSLQGDVKFAEVLEMMGAKVTWTETSVTVTGPPREPFGRKHLKAIDVNMNKMPDVAMTLAVVALFADGPTAIRDVASWRVKESERMVAIRTELTKLGASVEEGPDYCIITPPEKLNVTAIDTYGDHRMAMAFSLAACAEVPVTIRDPGCTRKTFPDYFDVLSTFVKN
modifications: Zea mays

Assays:
[1] = test system: maize EPSPS; assay: substrate saturation kinetic analysis (kcat, KM PEP, KI glyphosate); type: biochemical; details: for KI/KM: discrimination between glyphosate and PEP
Procedure: (§1) EPSPS activity was determined by quantifying the phosphate generated from the EPSPS reaction. Release of inorganic phosphate was coupled to its reaction with 2-amino-6-mercapto-7-methylpurine ribonucleoside (MESG), catalyzed by purine nucleoside phosphorylase, according to previously described protocols. To determine the kcat gly, enzyme preparations were normalized to 0.1 mg/ml and four- to six-microliter aliquots of normalized enzyme were added to the wells of a low UV-absorbing 96-well assay plate (Greiner UV-Star). Reactions were started with the addition of 2×147 μl of reaction mixture containing 25 mM Hepes, pH 7.0, 100 mM KCl, 5% ethylene glycol, 30 μM each of PEP and S3P, 0.15 mM MESG, 1.5 U/ml purine nucleoside phosphorylase (Sigma N8264) and 1 mM glyphosate. Absorbance was monitored at 4 sec intervals for 50 sec with a Spectramax plate reader (Molecular Devices). […] Division by the enzyme concentration (0.04 to 0.1 uM, depending on activity) yields “kcat gly” in units of min^−1.
(§2) Approximately 30 substitutions were designed into each library. Assuming an average incorporation rate of six substitutions per variant, the theoretical size of such libraries is ˜7×10^5. Libraries were screened using methods described previously and the enhanced method described in Example 2. The number of colony-forming units plated and screened was in the range of 50 to 100% of the theoretical size. Up to 200 colonies per library were picked for evaluation of the expressed variant. Proteins were purified as described previously in PCT/US2016/054399, incorporated herein by reference. Protein concentration was determined by measuring optical density at 280 nm. The extinction coefficient of native maize EPSPS (0.676 OD/mg/ml) was calculated by vNTI and used to convert OD280 to mg/ml. Kinetic parameters were determined as described in Example 1.
Combinatorial shuffling, maize native EPSPS—The mutations discovered were used to construct a combinatorial library designed to explore combinations of the desensitizing mutations in novel sequence contexts provided by the newly identified neutral mutations. Note that the amino acid position numbering in this Example 10 refers to the relative position of native maize EPSPS without the N-terminal Met. Therefore, G101A in this Example would be G102A in reference to SEQ ID NO: 1, wherein the maize EPSPS sequence has a Met added at the N-terminal. The diversity used was the same with the addition of G101A, T102 (IALGV) and P106(WA). In all, 43 substitutions at 29 positions were selected. The library was synthesized entirely from oligonucleotides, using the known technique of synthetic shuffling and was termed NatFS (Native, fully synthetic). The vector DNA of the library was transformed into the BL21(DE3) Tuner-AroA knockout strain and the cells were plated onto M9 medium containing either 30 mM glyphosate and 30 μM of the lac operon inducer isopropyl β-D-1-thiogalactopyranoside (IPTG) or 50 mM glyphosate and no IPTG. The 184 colonies that grew on either plate were picked and subjected to a second tier of screening in which EPSPS proteins were purified and activity measured at high (200 μM) and low (50 μM) PEP and S3P, with or without 10 μM glyphosate. Selected variants were subjected to substrate saturation kinetic analysis.

[2] = test system: maize EPSPS; assay: kcat gly / kgly: enzyme turnover under application conditions (30 μM PEP and S3P, 1 mM glyphosate), phosphate release coupled to MESG; type: biochemical; details: for Zm/Os: ratio of kcat gly, maize variant to rice ortholog
Procedure: A more straight-forward, accurate and meaningful parameter is one in which one rate measurement is performed under presumed in vivo conditions, if known. To establish a set of conditions that mimic those under which the mutated enzyme needs to perform, the concentrations of PEP and S3P were set low (30 uM, subject to the sensitivity of assay conditions) to approach the presumed intracellular concentrations (˜15 uM, the approximate values of KM for both PEP and S3P). Glyphosate is included at 1 mM. The pH is set at 7.0 and ionic strength at 100 mM KCl, also to mimic known in vivo conditions. Ethylene glycol is present at 5% (v/v) to approximate the dielectric constant of intracellular fluid. The parameter is termed “enzyme turnover under application conditions”, which is herein shortened to “kcat gly”. The conventional formatting of the expression “kcat” is not used, to avoid this term being characterized as a standard kinetic constant.
as §1, §2
A customized parameter for predicting performance in the treated plant that would be a more accurate representation than kcat/Km*Ki. […] However, kcat/Km*Ki may be inadequate for predicting the reaction velocity under the conditions of the application (plants sprayed with glyphosate) because it may neglect concentrations of substrate and inhibitor, factors that are not intrinsic to the enzyme, but on which the reaction rate depends. Therefore, libraries derived from C1 on in FIG. 2 were evaluated with a single rate measurement designed to take all factors in the rate equation for competitive inhibition into account. […] Glyphosate was included at 1 mM, a concentration attainable in tissues, especially meristems, receiving metabolite flow from treated leaves. The pH (7.0), ionic strength (100 mM KCl) and co-solvent concentration (5% ethylene glycol) were also intended to mimic in vivo conditions. The unit for the parameter is reaction rate (μM·min^−1) per enzyme concentration (μM), or min^−1, describing the enzyme turnover under application conditions, which we abbreviate as “kgly”. […]

[3] = Table 2, KM for PEP, read-out: KM
[4] = Table 2, 30 μM PEP and S3P, 1 mM glyphosate, pH 7.0

Row | Molecule | kcat ([1]; Table 2) | kcat/KM*KI ([1]; Table 2) | Km [1, 3] | KI/KM ([1]; Table 2) | Ki ([1]; Table 2, inhibitor glyphosate) | kcat gly [2, 4] | kcat gly ([2]; Table 5, maize variants) | Zm/Os ([2]; Table 5) | Ki ([1]; Ki for glyphosate) | Km ([1]; apparent Km, PEP present at 10 times its Km, read-out: Km S3P) | Km ([1]; apparent Km, S3P present at 10 times its Km, read-out: Km PEP) | kcat/Km*Ki ([1]; calculated with Km for PEP) | kcat ([1]; maize EPSPS variants) | kgly ([2]; enzyme turnover at 30 μM PEP and S3P, 1 mM glyphosate)
1 | B1 | 8.03 s⁻¹ | 21500 | 15.8 µM | 44.5 | 703 µM | 2 s⁻¹ | – | – | – | – | – | – | – | –
2 | B2 | 10.4 s⁻¹ | 30900 | 26.3 µM | 49.4 | 1300 µM | 2.07 s⁻¹ | – | – | – | – | – | – | – | –
3 | B3 | 9.47 s⁻¹ | 27100 | 20 µM | 47.7 | 955 µM | 1.98 s⁻¹ | 2.3 s⁻¹ | 1.35 | – | – | – | – | – | –
4 | B4 | 9.23 s⁻¹ | 37400 | 22.1 µM | 67.5 | 1490 µM | 1.88 s⁻¹ | – | – | – | – | – | – | – | –
5 | B5 | 9.88 s⁻¹ | 22710 | 34.7 µM | 38.3 | 1330 µM | 2.2 s⁻¹ | – | – | 893 ± 53 µM | 11.1 ± 0.7 µM | 18.1 ± 0.7 µM | 31130 | 10.5 ± 0.083 s⁻¹ | 175 ± 2.5 min⁻¹
6 | B6 | 7.87 s⁻¹ | 7280 | 71.5 µM | 15.4 | 1100 µM | 0.655 s⁻¹ | 0.753 s⁻¹ | 1.16 | – | – | – | – | – | –
